In FireProtDB (doi:10.1016/j.bpj.2010.04.076):

B1: Adenylate kinase, P16304 (parent)
chain: MNLVLMGLPGAGKGTQGERIVEDYGIPHISTGDMFRAAMKEETPLGLEAKSYIDKGELVPDEVTIGIVKERLGKDDCERGFLLDGFPRTVAQAEALEEILEEYGKPIDYVINIEVDKDVLMERLTGRRICSVCGTTYHLVFNPPKTPGICDKDGGELYQRADDNEETVSKRLEVNMKQTQPLLDFYSEKGYLANVNGQQDIQDVYADVKDLLGGLKK

Variants of: B1
Conditions: Bacillus subtilis (strain 168), pH 7, CD, transition: 2, reversible: yes, structure 2EU8, whole UniProt chain shown; for ddG of mutation (higher = less stable) / unfolding free energy: 20 °C, GdnHCl, Phosphate buffer 10mM; for Tm / change of melting temperature, mutant - wild type (higher = more stable): Thermal, KH2PO4 10mM

| Variant | ddG of mutation (higher = less stable) | unfolding free energy | Tm | change of melting temperature, mutant - wild type (higher = more stable) |
| --- | --- | --- | --- | --- |
| Q199R | -0.48 kcal/mol | 3.82 kcal/mol | 49.5 °C | 1.1 °C |
| Q199R A193V | -2.87 kcal/mol | 6.21 kcal/mol | 54.6 °C | 6.2 °C |
| Q199R G213E | -1.68 kcal/mol | 5.02 kcal/mol | 51.4 °C | 3 °C |
| Q199R G214R | -2.63 kcal/mol | 5.97 kcal/mol | 53.4 °C | 5 °C |
| Q199R Q16L | -3.35 kcal/mol | 6.69 kcal/mol | 63.3 °C | 14.9 °C |
| Q199R T179I | -2.4 kcal/mol | 5.74 kcal/mol | 53.3 °C | 4.9 °C |
| T179I | – | – | 47.8 °C | -0.6 °C |
| A193V | – | – | 48.9 °C | 0.5 °C |
| Q199R G213A | – | – | 37.9 °C | -10.5 °C |
| Q199R G213Q | – | – | 39.3 °C | -9.1 °C |
| Q199R G214A | – | – | 49.1 °C | 0.7 °C |
| Q199R G214K | – | – | 48.4 °C | 0 °C |
| G214R | – | – | 49.8 °C | 1.4 °C |
